Laboratory results published in the supplement of paper PMC10567573.

B1: MYOZ1 (parent)
chain: FSDSSMDHFQKFLPTVGGQLGTAG

Variants of: B1
Experiment: protein stability index of a GFP-peptide fusion (GPS, HEK-293T) (PSI 1-6); higher = more stable
Settings: c terminus: a fixed tail appended
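Note: lentivirally expressed fusions sorted by FACS into six bins by GFP to DsRed ratio, PSI derived from sequencing read proportions per bin multiplied by bin number.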

Variant	protein stability index
FSDSSMDHFQKFLGTVGGQLGTAG [P14G]	1.58
FSDSSMDHFQKFLVTVGGQLGTAG [P14V]	3.62
FSDSSMDHFQKFLNTVGGQLGTAG [P14N]	1.47
FSDSSMDHFQKFLMTVGGQLGTAG [P14M]	2.68
FSDSSMDHFQKFLFTVGGQLGTAG [P14F]	2.83
FSDSSMDHFQKFLRTVGGQLGTAG [P14R]	1.44
FSDSSMDHFQKFLTTVGGQLGTAG [P14T]	2.25
FSDSSMDHFQKFLCTVGGQLGTAG [P14C]	1.41
FSDSSMDHFQKFLLTVGGQLGTAG [P14L]	4.1
FSDSSMDHFQKFLDTVGGQLGTAG [P14D]	1.61
FSDSSMDHFQKFLQTVGGQLGTAG [P14Q]	2.38
FSDSAMDHFQKFLPTVGGQLGTAG [S5A]	3.02
FSDSPMDHFQKFLPTVGGQLGTAG [S5P]	2.08
FSDSFMDHFQKFLPTVGGQLGTAG [S5F]	2.22
FSDSWMDHFQKFLPTVGGQLGTAG [S5W]	2.38
FSDSRMDHFQKFLPTVGGQLGTAG [S5R]	1.05
FSDSGMDHFQKFLPTVGGQLGTAG [S5G]	1.88
FSDSMMDHFQKFLPTVGGQLGTAG [S5M]	1.82
FSDSKMDHFQKFLPTVGGQLGTAG [S5K]	2.07
FSDSHMDHFQKFLPTVGGQLGTAG [S5H]	2.25
FSDSEMDHFQKFLPTVGGQLGTAG [S5E]	2.91
FSDSDMDHFQKFLPTVGGQLGTAG [S5D]	2.58
FSDSCMDHFQKFLPTVGGQLGTAG [S5C]	2.19
FSDSNMDHFQKFLPTVGGQLGTAG [S5N]	3.11

Variant	protein stability index
FSDSTMDHFQKFLPTVGGQLGTAG [S5T]	2.98
FSDSQMDHFQKFLPTVGGQLGTAG [S5Q]	2.19
FSDSLMDHFQKFLPTVGGQLGTAG [S5L]	3.12
FSDSSMDHFQKFEPTVGGQLGTAG [L13E]	4.42
FSDSSMDHFQKFPPTVGGQLGTAG [L13P]	3.06
FSDSSMDHFQKFVPTVGGQLGTAG [L13V]	2.97
FSDSSMDHFQKFDPTVGGQLGTAG [L13D]	3.44
FSDSSMDHFQKFAPTVGGQLGTAG [L13A]	2.52
FSDSSMDHFQKFIPTVGGQLGTAG [L13I]	1.9
FSDSSMDHFQKFMPTVGGQLGTAG [L13M]	3.29
FSDSSMDHFQKFCPTVGGQLGTAG [L13C]	2.75
FSDSSMDHFQKFYPTVGGQLGTAG [L13Y]	2.76
FSDSSMDHFQKFQPTVGGQLGTAG [L13Q]	3.18
FSDSSMDHFQKFNPTVGGQLGTAG [L13N]	3.1
FSDSSMDHFQKFWPTVGGQLGTAG [L13W]	1.82
FSDSSMDHFQKFTPTVGGQLGTAG [L13T]	3.53
FSDSSMDHFQKFSPTVGGQLGTAG [L13S]	2.76
FSDSSMDHFQKFHPTVGGQLGTAG [L13H]	3.29
FSDSSMDHFQKFFPTVGGQLGTAG [L13F]	3.09
FSDSSMDHFQKFRPTVGGQLGTAG [L13R]	2.92
FSDSSMDHFQKFKPTVGGQLGTAG [L13K]	3.53
FSDSSMDHFQKFGPTVGGQLGTAG [L13G]	3.44
FSDSSMDHFCKFLPTVGGQLGTAG [Q10C]	2.06
FSDSSMDHFKKFLPTVGGQLGTAG [Q10K]	2.14

Variant	protein stability index
FSDSSMDHFGKFLPTVGGQLGTAG [Q10G]	2.57
FSDSSMDHFRKFLPTVGGQLGTAG [Q10R]	1.13
FSDSSMDHFYKFLPTVGGQLGTAG [Q10Y]	1.47
FSDSSMDHFFKFLPTVGGQLGTAG [Q10F]	2.3
FSDSSMDHFDKFLPTVGGQLGTAG [Q10D]	3.15
FSDSSMDHFEKFLPTVGGQLGTAG [Q10E]	1.95
FSDSSMDHFVKFLPTVGGQLGTAG [Q10V]	1.77
FSDSSMDHFHKFLPTVGGQLGTAG [Q10H]	2.31
FSDSSMDHFSKFLPTVGGQLGTAG [Q10S]	2.07
FSDSSMDHFPKFLPTVGGQLGTAG [Q10P]	3.23
FSDSSMDHFMKFLPTVGGQLGTAG [Q10M]	2.02
FSDSSMDHFTKFLPTVGGQLGTAG [Q10T]	2.15
FSDSSMDHFIKFLPTVGGQLGTAG [Q10I]	2.91
FSDSSMDHFAKFLPTVGGQLGTAG [Q10A]	2.33
FSDSSMDHFNKFLPTVGGQLGTAG [Q10N]	2.42
FSDSSMDHFLKFLPTVGGQLGTAG [Q10L]	1.3
FSDRSMDHFQKFLPTVGGQLGTAG [S4R]	2.51
FSDQSMDHFQKFLPTVGGQLGTAG [S4Q]	1.92
FSDDSMDHFQKFLPTVGGQLGTAG [S4D]	2.15
FSDWSMDHFQKFLPTVGGQLGTAG [S4W]	2.89
FSDHSMDHFQKFLPTVGGQLGTAG [S4H]	2.35
FSDCSMDHFQKFLPTVGGQLGTAG [S4C]	1.43
FSDISMDHFQKFLPTVGGQLGTAG [S4I]	3.59
FSDESMDHFQKFLPTVGGQLGTAG [S4E]	2.94

Variant	protein stability index
FSDYSMDHFQKFLPTVGGQLGTAG [S4Y]	1.61
FSDTSMDHFQKFLPTVGGQLGTAG [S4T]	2.65
FSDMSMDHFQKFLPTVGGQLGTAG [S4M]	1.79
FSDPSMDHFQKFLPTVGGQLGTAG [S4P]	2.42
FSDKSMDHFQKFLPTVGGQLGTAG [S4K]	2.12
FSDGSMDHFQKFLPTVGGQLGTAG [S4G]	2.15
FSDNSMDHFQKFLPTVGGQLGTAG [S4N]	2.32
FSDVSMDHFQKFLPTVGGQLGTAG [S4V]	3.14
FSDFSMDHFQKFLPTVGGQLGTAG [S4F]	2.87
FSDSSMDLFQKFLPTVGGQLGTAG [H8L]	1.35
FSDSSMDPFQKFLPTVGGQLGTAG [H8P]	2.36
FSDSSMDAFQKFLPTVGGQLGTAG [H8A]	1.84
FSDSSMDRFQKFLPTVGGQLGTAG [H8R]	1.61
FSDSSMDSFQKFLPTVGGQLGTAG [H8S]	1.53
FSDSSMDKFQKFLPTVGGQLGTAG [H8K]	2.15
FSDSSMDFFQKFLPTVGGQLGTAG [H8F]	1.38
FSDSSMDIFQKFLPTVGGQLGTAG [H8I]	2.21
FSDSSMDGFQKFLPTVGGQLGTAG [H8G]	2.07
FSDSSMDNFQKFLPTVGGQLGTAG [H8N]	2.48
FSDSSMDTFQKFLPTVGGQLGTAG [H8T]	2.51
FSDSSMDQFQKFLPTVGGQLGTAG [H8Q]	2.58
FSDSSMDWFQKFLPTVGGQLGTAG [H8W]	2.22
FSDSSMDYFQKFLPTVGGQLGTAG [H8Y]	2.08
FSDSSMDDFQKFLPTVGGQLGTAG [H8D]	2.49

Variant	protein stability index
FSDSSMDVFQKFLPTVGGQLGTAG [H8V]	1.76
FSDSSMDEFQKFLPTVGGQLGTAG [H8E]	2.34
FSDSSMDCFQKFLPTVGGQLGTAG [H8C]	1.72
FSDSSMDHGQKFLPTVGGQLGTAG [F9G]	4.56
FSDSSMDHTQKFLPTVGGQLGTAG [F9T]	2.48
FSDSSMDHHQKFLPTVGGQLGTAG [F9H]	2.57
FSDSSMDHNQKFLPTVGGQLGTAG [F9N]	3.84
FSDSSMDHIQKFLPTVGGQLGTAG [F9I]	2.46
FSDSSMDHKQKFLPTVGGQLGTAG [F9K]	3.09
FSDSSMDHPQKFLPTVGGQLGTAG [F9P]	4.38
FSDSSMDHYQKFLPTVGGQLGTAG [F9Y]	2.78
FSDSSMDHDQKFLPTVGGQLGTAG [F9D]	4.52
FSDSSMDHSQKFLPTVGGQLGTAG [F9S]	3.61
FSDSSMDHMQKFLPTVGGQLGTAG [F9M]	3.37
FSDSSMDHCQKFLPTVGGQLGTAG [F9C]	2.92
FSDSSMDHQQKFLPTVGGQLGTAG [F9Q]	3.88
FSDSSMDHEQKFLPTVGGQLGTAG [F9E]	4.4
FSDSSMDHAQKFLPTVGGQLGTAG [F9A]	2.71
FSDSSMDHRQKFLPTVGGQLGTAG [F9R]	2.6
FSDSSMDHVQKFLPTVGGQLGTAG [F9V]	3.71
FSDSSMDHWQKFLPTVGGQLGTAG [F9W]	1.89
FSDSSMDHLQKFLPTVGGQLGTAG [F9L]	2.16
FSDSSMDHFQKPLPTVGGQLGTAG [F12P]	3.61
FSDSSMDHFQKWLPTVGGQLGTAG [F12W]	1.85

Variant	protein stability index
FSDSSMDHFQKTLPTVGGQLGTAG [F12T]	3.16
FSDSSMDHFQKILPTVGGQLGTAG [F12I]	2.08
FSDSSMDHFQKYLPTVGGQLGTAG [F12Y]	2.77
FSDSSMDHFQKSLPTVGGQLGTAG [F12S]	3.67
FSDSSMDHFQKNLPTVGGQLGTAG [F12N]	3.68
FSDSSMDHFQKHLPTVGGQLGTAG [F12H]	3.28
FSDSSMDHFQKCLPTVGGQLGTAG [F12C]	2.92
FSDSSMDHFQKALPTVGGQLGTAG [F12A]	3.98
FSDSSMDHFQKGLPTVGGQLGTAG [F12G]	3.15
FSDSSMDHFQKQLPTVGGQLGTAG [F12Q]	3.04
FSDSSMDHFQKMLPTVGGQLGTAG [F12M]	3.11
FSDSSMDHFQKELPTVGGQLGTAG [F12E]	4.6
FSDSSMDHFQKLLPTVGGQLGTAG [F12L]	2.88
FSDSSMDHFQKDLPTVGGQLGTAG [F12D]	4.08
FSDSSMDHFQKRLPTVGGQLGTAG [F12R]	3.5
FSDSSMDHFQKKLPTVGGQLGTAG [F12K]	3.67
FSDSSSDHFQKFLPTVGGQLGTAG [M6S]	2.26
FSDSSIDHFQKFLPTVGGQLGTAG [M6I]	2.04
FSDSSPDHFQKFLPTVGGQLGTAG [M6P]	2.56
FSDSSEDHFQKFLPTVGGQLGTAG [M6E]	3
FSDSSVDHFQKFLPTVGGQLGTAG [M6V]	2.23
FSDSSTDHFQKFLPTVGGQLGTAG [M6T]	2.58
FSDSSRDHFQKFLPTVGGQLGTAG [M6R]	2.66
FSDSSGDHFQKFLPTVGGQLGTAG [M6G]	2.86

Variant	protein stability index
FSDSSLDHFQKFLPTVGGQLGTAG [M6L]	2.29
FSDSSQDHFQKFLPTVGGQLGTAG [M6Q]	3
FSDSSFDHFQKFLPTVGGQLGTAG [M6F]	3.55
FSDSSADHFQKFLPTVGGQLGTAG [M6A]	2.65
FSDSSKDHFQKFLPTVGGQLGTAG [M6K]	3.08
FSDSSHDHFQKFLPTVGGQLGTAG [M6H]	2.25
FSDSSWDHFQKFLPTVGGQLGTAG [M6W]	1.44
FSDSSNDHFQKFLPTVGGQLGTAG [M6N]	2.78
FSDSSDDHFQKFLPTVGGQLGTAG [M6D]	3.22
FSDSSYDHFQKFLPTVGGQLGTAG [M6Y]	2.32
FSDSSCDHFQKFLPTVGGQLGTAG [M6C]	1.96
FSDSSMQHFQKFLPTVGGQLGTAG [D7Q]	2.02
FSDSSMEHFQKFLPTVGGQLGTAG [D7E]	2.02
FSDSSMGHFQKFLPTVGGQLGTAG [D7G]	1.44
FSDSSMRHFQKFLPTVGGQLGTAG [D7R]	2.6
FSDSSMSHFQKFLPTVGGQLGTAG [D7S]	2.56
FSDSSMMHFQKFLPTVGGQLGTAG [D7M]	1.38
FSDSSMAHFQKFLPTVGGQLGTAG [D7A]	1.38
FSDSSMIHFQKFLPTVGGQLGTAG [D7I]	2.3
FSDSSMPHFQKFLPTVGGQLGTAG [D7P]	2.38
FSDSSMTHFQKFLPTVGGQLGTAG [D7T]	2.15
FSDSSMHHFQKFLPTVGGQLGTAG [D7H]	1.82
FSDSSMVHFQKFLPTVGGQLGTAG [D7V]	2.15
FSDSSMCHFQKFLPTVGGQLGTAG [D7C]	1.9

Variant	protein stability index
FSDSSMLHFQKFLPTVGGQLGTAG [D7L]	1.55
FSDSSMKHFQKFLPTVGGQLGTAG [D7K]	1.8
FSDSSMDHFQFFLPTVGGQLGTAG [K11F]	2.07
FSDSSMDHFQTFLPTVGGQLGTAG [K11T]	2.45
FSDSSMDHFQGFLPTVGGQLGTAG [K11G]	3.21
FSDSSMDHFQQFLPTVGGQLGTAG [K11Q]	2.66
FSDSSMDHFQPFLPTVGGQLGTAG [K11P]	2.46
FSDSSMDHFQSFLPTVGGQLGTAG [K11S]	2.37
FSDSSMDHFQRFLPTVGGQLGTAG [K11R]	2.12
FSDSSMDHFQYFLPTVGGQLGTAG [K11Y]	2.15
FSDSSMDHFQMFLPTVGGQLGTAG [K11M]	1.34
FSDSSMDHFQIFLPTVGGQLGTAG [K11I]	2.12
FSDSSMDHFQCFLPTVGGQLGTAG [K11C]	1.8
FSDSSMDHFQAFLPTVGGQLGTAG [K11A]	1.79
FSDSSMDHFQDFLPTVGGQLGTAG [K11D]	3.32
FSDSSMDHFQEFLPTVGGQLGTAG [K11E]	3.51
FSDSSMDHFQHFLPTVGGQLGTAG [K11H]	2.38
FSDSSMDHFQWFLPTVGGQLGTAG [K11W]	1.02
FSDSSMDHFQNFLPTVGGQLGTAG [K11N]	2.56
FSDSSMDHFQLFLPTVGGQLGTAG [K11L]	1.67
